The record followed here is publication PMC2744139.

In this data set the target is Cdc13 full-length (FL) (Saccharomyces cerevisiae, UniProt P32797 1-924). Briefly: fluorescence anisotropy. For orientation: Polarisation of emitted light reports the rotation of a fluorescent probe.
Sequence of Cdc13 full-length (FL) (P32797 whole entry): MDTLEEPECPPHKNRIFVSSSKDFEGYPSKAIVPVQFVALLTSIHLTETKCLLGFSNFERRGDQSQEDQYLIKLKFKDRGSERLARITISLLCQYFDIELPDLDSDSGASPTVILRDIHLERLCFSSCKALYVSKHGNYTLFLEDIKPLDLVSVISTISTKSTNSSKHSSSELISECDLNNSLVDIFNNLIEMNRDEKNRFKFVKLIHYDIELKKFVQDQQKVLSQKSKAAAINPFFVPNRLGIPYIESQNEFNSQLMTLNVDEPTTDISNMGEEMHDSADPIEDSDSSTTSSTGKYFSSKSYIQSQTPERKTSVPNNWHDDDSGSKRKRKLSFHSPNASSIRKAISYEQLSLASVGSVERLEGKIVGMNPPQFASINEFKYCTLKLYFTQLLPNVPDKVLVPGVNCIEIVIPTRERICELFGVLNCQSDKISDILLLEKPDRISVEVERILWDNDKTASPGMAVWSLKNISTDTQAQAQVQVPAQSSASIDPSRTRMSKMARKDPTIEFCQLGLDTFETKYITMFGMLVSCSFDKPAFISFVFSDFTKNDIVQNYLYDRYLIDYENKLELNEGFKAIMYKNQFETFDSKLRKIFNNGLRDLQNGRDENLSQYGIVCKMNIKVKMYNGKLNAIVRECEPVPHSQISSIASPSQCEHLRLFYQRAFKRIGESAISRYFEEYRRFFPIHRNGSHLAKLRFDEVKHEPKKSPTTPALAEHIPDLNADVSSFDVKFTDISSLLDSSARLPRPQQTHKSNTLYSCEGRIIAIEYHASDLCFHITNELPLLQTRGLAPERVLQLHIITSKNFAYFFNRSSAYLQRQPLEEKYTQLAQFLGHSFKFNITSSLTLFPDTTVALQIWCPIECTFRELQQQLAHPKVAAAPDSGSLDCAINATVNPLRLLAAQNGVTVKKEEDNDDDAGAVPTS

B1: 7-base 3'-overhang telomeric DNA (mixed)
DNA: GTGGGTGTGTGTGTGGGGTGGTGTGTGTGG
?: CACCACCCCACACACACACCCAC
On to B1, for which the binding result is “no binding”.
